According to US20210393713A1:

Target: Twin-Strep-tagged LY6A, C57BL/6J variant (GPI-anchor truncated, soluble) (mouse (C57BL/6J)) (UniProt P05533)
Test: ELISA, AAV particles on plate-bound Twin-Strep-tagged LY6A; apparent Kd from a 1:1 fit

Twin-Strep-tagged LY6A, C57BL/6J variant (GPI-anchor truncated, soluble) (mouse (C57BL/6J)), sequence (P05533 27-111, change not shown): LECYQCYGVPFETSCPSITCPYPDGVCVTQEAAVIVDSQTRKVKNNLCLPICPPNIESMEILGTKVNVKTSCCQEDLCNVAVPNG

Substance “AAV-PHP.B capsid (AAV9 variant with the TLAVPFK insert)” has a Kd of 70 pM.
